We go through 44 molecules from patent US20210388087A1 (Chugai, published 2021).

First the molecules themselves.
B1: H183/L072 VH F27G (antibody, name in Kabat numbering, V domains shown)
VH: QVQLVESGGGLVQPGRSLRLSCAASGGTFSNAWMHWVRQAPGKGLEWVAQIKDKGNAYAAYYAPSVKGRFTISRDDSKNSIYLQMNSLKTEDTAVYYCHYVHYASASTVLPAFGVDAWGQGTTVTVSS
VL: DIVMTQSPLSLPVTPGEPASISCQASQELVHMNRNTYLHWYQQKPGQAPRLLIYKVSNRFPGVPDRFSGSGSGTDFTLKISRVEAEDVGVYYCAQGTSVPFTFGQGTKLEIK
B2: H183/L072 VH F27R (antibody, name in Kabat numbering, V domains shown)
VH: B1 VH with G27R
VL: B1 VL
B3: H183/L072 VH G26P (antibody, name in Kabat numbering, V domains shown)
VH: B1 VH with G26P, G27F
VL: B1 VL
B4: H183/L072 VH F100gA (antibody, name in Kabat numbering, V domains shown)
VH: B1 VH with G27F, F113A
VL: B1 VL
B5: H183/L072 VH F100gM (antibody, name in Kabat numbering, V domains shown)
VH: B1 VH with G27F, F113M
VL: B1 VL
B6: H183/L072 VH G52cA (antibody, name in Kabat numbering, V domains shown)
VH: B1 VH with G27F, G55A
VL: B1 VL
B7: H183/L072 VH F27V (antibody, name in Kabat numbering, V domains shown)
VH: B1 VH with G27V
VL: B1 VL
B8: H183/L072 VH G26Y (antibody, name in Kabat numbering, V domains shown)
VH: B1 VH with G26Y, G27F
VL: B1 VL
B9: H183/L072 VH F100gL (antibody, name in Kabat numbering, V domains shown)
VH: B1 VH with G27F, F113L
VL: B1 VL
B10: H183/L072 VH F29P (antibody, name in Kabat numbering, V domains shown)
VH: B1 VH with G27F, F29P
VL: B1 VL
B11: H183/L072 VH F27P (antibody, name in Kabat numbering, V domains shown)
VH: B1 VH with G27P
VL: B1 VL
B12: H183/L072 VH F27H (antibody, name in Kabat numbering, V domains shown)
VH: B1 VH with G27H
VL: B1 VL
B13: H183/L072 VH G26S (antibody, name in Kabat numbering, V domains shown)
VH: B1 VH with G26S, G27F
VL: B1 VL
B14: H183/L072 VH F29T (antibody, name in Kabat numbering, V domains shown)
VH: B1 VH with G27F, F29T
VL: B1 VL
B15: H183/L072 VH F27M (antibody, name in Kabat numbering, V domains shown)
VH: B1 VH with G27M
VL: B1 VL
B16: H183/L072 VH F29I (antibody, name in Kabat numbering, V domains shown)
VH: B1 VH with G27F, F29I
VL: B1 VL
B17: H183/L072 VH G26F (antibody, name in Kabat numbering, V domains shown)
VH: B1 VH with G26F, G27F
VL: B1 VL
B18: H183/L072 VH G52cD (antibody, name in Kabat numbering, V domains shown)
VH: B1 VH with G27F, G55D
VL: B1 VL
B19: H183/L072 VH G26E (antibody, name in Kabat numbering, V domains shown)
VH: B1 VH with G26E, G27F
VL: B1 VL
B20: H183/L072 VH F29W (antibody, name in Kabat numbering, V domains shown)
VH: B1 VH with G27F, F29W
VL: B1 VL
B21: H183/L072 VH F27W (antibody, name in Kabat numbering, V domains shown)
VH: B1 VH with G27W
VL: B1 VL
B22: H183/L072 VH F27N (antibody, name in Kabat numbering, V domains shown)
VH: B1 VH with G27N
VL: B1 VL
B23: H183/L072 VH G26Q (antibody, name in Kabat numbering, V domains shown)
VH: B1 VH with G26Q, G27F
VL: B1 VL
B24: H183/L072 VH G26L (antibody, name in Kabat numbering, V domains shown)
VH: B1 VH with G26L, G27F
VL: B1 VL
B25: H183/L072 VH G26W (antibody, name in Kabat numbering, V domains shown)
VH: B1 VH with G26W, G27F
VL: B1 VL
B26: H183/L072 VH G26I (antibody, name in Kabat numbering, V domains shown)
VH: B1 VH with G26I, G27F
VL: B1 VL
B27: H183/L072 VH F27Y (antibody, name in Kabat numbering, V domains shown)
VH: B1 VH with G27Y
VL: B1 VL
B28: H183/L072 VH F27K (antibody, name in Kabat numbering, V domains shown)
VH: B1 VH with G27K
VL: B1 VL
B29: H183/L072 VH F29Y (antibody, name in Kabat numbering, V domains shown)
VH: B1 VH with G27F, F29Y
VL: B1 VL
B30: H183/L072 VH F27L (antibody, name in Kabat numbering, V domains shown)
VH: B1 VH with G27L
VL: B1 VL
B31: H183/L072 VH F29V (antibody, name in Kabat numbering, V domains shown)
VH: B1 VH with G27F, F29V
VL: B1 VL
B32: H183/L072 VH G26R (antibody, name in Kabat numbering, V domains shown)
VH: B1 VH with G26R, G27F
VL: B1 VL
B33: H183/L072 VH G26A (antibody, name in Kabat numbering, V domains shown)
VH: B1 VH with G26A, G27F
VL: B1 VL
B34: H183/L072 VH G26H (antibody, name in Kabat numbering, V domains shown)
VH: B1 VH with G26H, G27F
VL: B1 VL
B35: H183/L072 VH G26N (antibody, name in Kabat numbering, V domains shown)
VH: B1 VH with G26N, G27F
VL: B1 VL
B36: H183/L072 VH F29M (antibody, name in Kabat numbering, V domains shown)
VH: B1 VH with G27F, F29M
VL: B1 VL
B37: H183/L072 VH F100gI (antibody, name in Kabat numbering, V domains shown)
VH: B1 VH with G27F, F113I
VL: B1 VL
B38: H183/L072 VH G26T (antibody, name in Kabat numbering, V domains shown)
VH: B1 VH with G26T, G27F
VL: B1 VL
B39: H183/L072 VH G26D (antibody, name in Kabat numbering, V domains shown)
VH: B1 VH with G26D, G27F
VL: B1 VL
B40: H183/L072 VH F27Q (antibody, name in Kabat numbering, V domains shown)
VH: B1 VH with G27Q
VL: B1 VL
B41: H183/L072 VH F29L (antibody, name in Kabat numbering, V domains shown)
VH: B1 VH with G27F, F29L
VL: B1 VL
B42: H183/L072 VH F27S (antibody, name in Kabat numbering, V domains shown)
VH: B1 VH with G27S
VL: B1 VL
B43: H183/L072 VH G52cE (antibody, name in Kabat numbering, V domains shown)
VH: B1 VH with G27F, G55E
VL: B1 VL
B44: H183/L072 VH F27T (antibody, name in Kabat numbering, V domains shown)
VH: B1 VH with G27T
VL: B1 VL

Numbering of substitutions follows the chain as printed. In names and notes the source's numbering stands.

T1 sequence (chain, as listed by the source limits assumed): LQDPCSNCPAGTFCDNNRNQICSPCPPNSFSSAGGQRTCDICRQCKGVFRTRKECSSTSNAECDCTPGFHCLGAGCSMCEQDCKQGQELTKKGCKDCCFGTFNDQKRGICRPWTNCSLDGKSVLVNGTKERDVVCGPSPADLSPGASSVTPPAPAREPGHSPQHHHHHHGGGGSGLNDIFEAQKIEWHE

This assay concerns the target T1, Human CD137 ECD (human).
T1 construct: also called 4-1BB
The assay is described as follows: single mutant vs template dBBDu183H.
On to B1, for which the “fold change of affinity” value is 0.4 fold. Take B2: the “fold change of affinity” value was determined as 0.2 fold. In the case of B3, the “fold change of affinity” value was determined as 0.1 fold.

B4: the “fold change of affinity” value came out at 0.5 fold.

B5: the “fold change of affinity” value worked out at 0.6 fold.

As to B6, the “fold change of affinity” value amounted to 0.8 fold. To B7 belongs 0.3 fold. Regarding B8, the “fold change of affinity” value was 0.3 fold.

Regarding B9, the “fold change of affinity” value is 1.2 fold. Consider B10, for which the “fold change of affinity” value came to 0.1 fold. Take B11: the “fold change of affinity” value amounted to 0.3 fold.

Turning to B12, the “fold change of affinity” value stood at 0.3 fold. Take B13: the “fold change of affinity” value is 0.4 fold. In the case of B14, the “fold change of affinity” value is 0.1 fold. Under B15 stands 0.9 fold.

As for B16, the “fold change of affinity” value came out at 0.3 fold. Under B17 stands 0.3 fold. With B18, the “fold change of affinity” value was determined as 0.6 fold. Under B19 stands 0.5 fold. In the case of B20, the “fold change of affinity” value turned out to be 0.1 fold. Under B21 stands 0.3 fold; under B22, 0.3 fold; under B23, 0.4 fold. As to B24, the “fold change of affinity” value stood at 0.3 fold. Take B25: the “fold change of affinity” value stood at 0.3 fold. To B26 belongs 0.3 fold. To B27 belongs 0.4 fold. Regarding B28, the “fold change of affinity” value is 0.2 fold. Under B29 stands 0.2 fold; under B30, 0.5 fold. Regarding B31, the “fold change of affinity” value stood at 0.1 fold. For the molecule B32, the “fold change of affinity” value stood at 0.3 fold. In the case of B33, the “fold change of affinity” value turned out to be 0.4 fold.

B34: the “fold change of affinity” value stood at 0.4 fold. To B35 belongs 0.5 fold; to B36, 0.3 fold. As to B37, the “fold change of affinity” value was determined as 1 fold. To B38 belongs 0.5 fold; to B39, 0.8 fold. In the case of B40, the “fold change of affinity” value came out at 0.2 fold. As for B41, the “fold change of affinity” value is 0.3 fold. As to B42, the “fold change of affinity” value came to 0.3 fold. Take B43: the “fold change of affinity” value turned out to be 0.8 fold. Take B44: the “fold change of affinity” value came out at 0.3 fold.
